{"source": "paper PMC8576073", "about": "“Ultra pH‐sensitive detection of total and free prostate‐specific antigen using electrochemical aptasensor based on reduced graphene oxide/gold nanoparticles emphasis on TiO2/carbon quantum dots as a r”", "binders": {"B1": {"name": "thiolated PSA binding DNA aptamer (ssDNA)", "DNA": "TTTTTTTTTTATTAAAGCTCGCCATCAAATAGCTGC", "modifications": "5'-HS (thiol)"}}, "target": "prostate-specific antigen (PSA) (human, UniProt P07288 25-261)", "sequence (P07288 25-261)": "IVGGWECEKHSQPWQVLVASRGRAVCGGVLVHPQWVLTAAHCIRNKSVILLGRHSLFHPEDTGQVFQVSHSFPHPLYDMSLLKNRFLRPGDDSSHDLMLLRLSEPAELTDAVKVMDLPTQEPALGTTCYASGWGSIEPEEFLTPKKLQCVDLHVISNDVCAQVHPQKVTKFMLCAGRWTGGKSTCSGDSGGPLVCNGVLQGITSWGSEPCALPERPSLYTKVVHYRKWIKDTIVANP", "experiment": "electrochemical aptasensor (CV, SWV, EIS); ferrocyanide or TiO2/CQDs redox probe; 30 min binding; detection 0.5-7 ng/ml; LOD is not a Kd; Aptamer electrode washed with 0.1 mol/L PBS pH 7.0; PSA 30 min; 1.0 mM K3/K4[Fe(CN)6] (1:1), or TiO2/CQDs electrolyte at pH 5.4 and pH 8; temperature not stated", "settings": "protein: commercial", "data": [{"binder": "B1", "values": [{"measurement": "binding result", "result": "binds"}]}]}
